Results published in patent US20240352155A1 (CHIMAGEN BIOSCIENCES, published 2024).
Read-outs that look alike come from different tables or passages of the source.

T1: CD20 (stably transfected into K562 cells) (UniProt P11836 1-297, limits assumed)
T1 sequence (looked up): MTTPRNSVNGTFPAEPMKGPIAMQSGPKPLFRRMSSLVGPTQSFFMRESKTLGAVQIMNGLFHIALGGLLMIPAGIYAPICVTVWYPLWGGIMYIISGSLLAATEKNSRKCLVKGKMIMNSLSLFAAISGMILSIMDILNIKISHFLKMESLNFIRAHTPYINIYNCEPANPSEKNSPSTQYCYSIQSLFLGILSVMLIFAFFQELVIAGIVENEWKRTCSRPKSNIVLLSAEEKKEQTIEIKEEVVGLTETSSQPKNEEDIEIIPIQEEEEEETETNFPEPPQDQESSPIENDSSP

T2: human CD19 antigen (human, UniProt P15391 20-291)
T2 sequence (looked up): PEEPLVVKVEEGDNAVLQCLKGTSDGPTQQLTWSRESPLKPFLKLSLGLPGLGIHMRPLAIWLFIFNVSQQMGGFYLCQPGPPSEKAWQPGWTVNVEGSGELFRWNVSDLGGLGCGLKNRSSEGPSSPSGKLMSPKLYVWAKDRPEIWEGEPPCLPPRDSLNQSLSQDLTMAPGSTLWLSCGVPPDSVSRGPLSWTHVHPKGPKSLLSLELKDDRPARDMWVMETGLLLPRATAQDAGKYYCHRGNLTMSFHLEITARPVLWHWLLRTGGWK

B1: CD3XCD19XCD20 tri-specific antibody (antibody #1) (other)
chain 1: EIVLTQSPATLSVTPGERATLSCSASSSVSYMHWYQKKPGQAPRLLIYDTSKLASGIPARFSGSGSGTDFTLTISSLEPEDFAVYYCFQGSVYPFTFGCGTKLEIKRTVAAEVQLVESGGGLVQPGGSLRLSCAASGFTFSTYAMNWVRQAPGKGLEWVGRIRSKYNNYATYYADSVKGRFTISRDDSKNSLYLQMNSLRAEDTAVYYCVRHGNFGNSYVSWFAYWGQGTLVTVSS
chain 2: QAVVTQEPSLTVSPGGTVTLTCRSSTGAVTTSNYANWVQQKPGQAPRGLIGGTNKRAPWTPARFSGSLLGGKAALTLSGAQAEDEADYYCALWYSNLWVFGGGTKLTVLRTVAAQVQLQESGPGLVKPSQTLSLTCTVSGGSISTSGMGVGWIRDHPGKCLEWIGHIWWDDDKRYNPALKSRVTISVDTSKNQFSLKLSSVTAADTAVYYCARMELWSYYFDYWGQGTTLTVSSASEPKSSDKTHTCPPCPAPPVAGPSVFLFPPKPKDTLMISRTPEVTCVVVDVSQEDPEVKFNWYVDGVEVHNAKTKPREEQFNSTYRVVSVLTVLHQDWLNGKEYKCKVSNKGLPSSIEKTISKAKGQPREPQVYTLPPSRDELTKNQVSLWCLVKGFYPSDIAVEWESNGQPENNYKTTPPVLDSDGSFFLYSKLTVDKSRWQQGNVFSCSVMHEALHNHYTQKSLSLSP
heavy: QVQLVQSGAEVKKPGSSVKVSCKASGYAFSYSWINWVRQAPGQGLEWMGRIFPGDGDTDYNGKFKGRVTITADKSTSTAYMELSSLRSEDTAVYYCARNVFDGYWLVYWGQGTLVTVSSASTKGPSVFPLAPSSKSTSGGTAALGCLVKDYFPEPVTVSWNSGALTSGVHTFPAVLQSSGLYSLSSVVTVPSSSLGTQTYICNVNHKPSNTKVDKKVEPKSCDKTHTCPPCPAPPVAGPSVFLFPPKPKDTLMISRTPEVTCVVVDVSQEDPEVKFNWYVDGVEVHNAKTKPREEQFNSTYRVVSVLTVLHQDWLNGKEYKCKVSNKGLPSSIEKTISKAKGQPREPQVYTLPPSRDELTKNQVSLSCAVKGFYPSDIAVEWESNGQPENNYKTTPPVLDSDGSFFLVSKLTVDKSRWQQGNVFSCSVMHEALHNRFTQKSLSLSP
light: DIVMTQTPLSLPVTPGEPASISCRSSKSLLHSNGITYLYWYLQKPGQSPQLLIYQMSNLVSGVPDRFSGSGSGTDFTLKISRVEAEDVGVYYCAQNLELPYTFGGGTKVEIKRTVAAPSVFIFPPSDEQLKSGTASVVCLLNNFYPREAKVQWKVDNALQSGNSQESVTEQDSKDSTYSLSSTLTLSKADYEKHKVYACEVTHQGLSSPVTKSFNRGEC
notes: Tri-specific antibody of four polypeptide chains
B2: CD3XCD19 bispecific antibody (antibody A) (bispecific antibody)
chain 1: EIVLTQSPATLSVTPGERATLSCSASSSVSYMHWYQKKPGQAPRLLIYDTSKLASGIPARFSGSGSGTDFTLTISSLEPEDFAVYYCFQGSVYPFTFGCGTKLEIKRTVAAEVQLVESGGGLVQPGGSLRLSCAASGFTFNTYAMNWVRKAPGKGLEWVGRIRSKYNNYATYYADSVDKGRFTISRDDSKNSLYLQMNSLKTEDTAVYYCVRHGNFGNSYVSWFAYWGQGTLVTVSS
chain 2: EAVVTQEPSLTVSPGGTVTLTCRSSTGAVTTSNYANWVQDKPGQAPRGLIGGTNKRAPWTPARFSGSLLGGKAALTITGAQPEDEAEYYCALWYSNLWVFGGGTKLTVLRTVAAQVQLQESGPGLVKPSQTLSLTCTVSGGSISTSGMGVGWIRDHPGKCLEWIGHIWWDDDKRYNPALKSRVTISVDTSKNQFSLKLSSVTAADTAVYYCARMELWSYYFDYWGQGTTLTVSSASEPKSDKTHTCPPCPAPPVAGGPSVFLFPPKPKDTLMISRTPEVTCVVVDVSQEDPEVKFNWYVDGVEVHNAKTKPREEQFNSTYRVVSVLTVLHQDWLNGKEYKCKVSNKGLPSSIEKTISKAKGQPREPQVYTLPPCRDELTKNQVSLWCLVKGFYPSDIAVEWESNGQPENNYKTTPPVLDSDGSFFLYSKLTVDKSRWQQGNVFSCSVMHEALHNHYTQKSLSLSPGK
chain 3: DKTHTCPPCPAPPVAGGPSVFLFPPKPKDTLMISRTPEVTCVVVDVSQEDPEVKFNWYVDGVEVHNAKTKPREEQFNSTYRVVSVLTVLHQDWLNGKEYKCKVSNKGLPSSIEKTISKAKGQPREPQVCTLPPSRDELTKNQVSLSCAVKGFYPSDIAVEWESNGQPENNYKTTPPVLDSDGSFFLVSKLTVDKSRWQQGNVFSCSVMHEALHNRFTQKSLSLSPGK
notes: Three-polypeptide bispecific made in CHO3E7 cells; The description speaks of a disulfide bond between CD19 VL and VH, charge substitutions and a knob-in-hole Fc

Experiments:
human CD3ε antigen [1] = molecular target: T3, human CD3ε antigen (human, UniProt P07766 23-126); experiment: BIAcore (SPR), antigen immobilized on chip, antibody injected at 5 concentrations
T3 construct: Immobilized on the BIAcore chip; The construct (tag, limits) is not described
T3 sequence (P07766 23-126): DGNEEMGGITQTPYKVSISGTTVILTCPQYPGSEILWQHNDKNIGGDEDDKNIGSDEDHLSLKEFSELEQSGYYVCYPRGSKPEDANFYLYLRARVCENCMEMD

[2] = molecular target: T1, CD20 (stably transfected into K562 …); experiment: cell-based or functional assay
human CD19 antigen [3] = molecular target: T2, human CD19 antigen; experiment: BIAcore (SPR), CD19 captured on anti-His chip, antibody injected at 5 concentrations
human CD3ε antigen [4] = molecular target: T3, human CD3ε antigen; experiment: BIAcore (SPR), antigen immobilized on chip, antibody injected at 5 concentrations; remark: listed apart in the source
human CD19 antigen [5] = molecular target: T2, human CD19 antigen; experiment: BIAcore (SPR), CD19 captured on anti-His chip, antibody injected at 5 concentrations; remark: listed apart in the source

| Binder | Kd (human CD3ε antigen [1]) [nM] | koff (human CD3ε antigen [1]) [s⁻¹] | kon (human CD3ε antigen [1]) [M⁻¹ s⁻¹] | EC50 of killing of K562-CD20 target cells by PBMC effector cells (absorbance at OD490) [2] [nM] | Kd (human CD19 antigen [3]) [nM] | koff (human CD19 antigen [3]) [s⁻¹] | kon (human CD19 antigen [3]) [M⁻¹ s⁻¹] | Kd (human CD3ε antigen [4]) [nM] | koff (human CD3ε antigen [4]) [s⁻¹] | kon (human CD3ε antigen [4]) [M⁻¹ s⁻¹] | Kd (human CD19 antigen [5]) [nM] | koff (human CD19 antigen [5]) [s⁻¹] | kon (human CD19 antigen [5]) [M⁻¹ s⁻¹] |
| --- | --- | --- | --- | --- | --- | --- | --- | --- | --- | --- | --- | --- | --- |
| B1 | 25 | 0.00835 | 334000 | 0.00122 | 1.32 | 0.000273 | 207000 |  |  |  |  |  |  |
| B2 |  |  |  |  |  |  |  | 31.4 | 0.0153 | 488000 | 1.83 | 0.000669 | 365000 |
